Data as given in the DeepSol protein solubility set.

Test: soluble on expression in E. coli; label from the status in PepcDB or PDB records

| Sequence | soluble on expression in E. coli |
| --- | --- |
| MGEQDPSDRLRGDQLKEPNQNGKGSFSQFSSSVRAMVRIRMKYQAIKKRRMEIASATPQIFTSPRSTSPKVFTFDNLHEPVNSNPASPRKRKKKRKGRVLYPTSSLRAVPTKESSRAKNCLYLLCIIVFLQVYNAIENLDDHVLKYDLEGLEKTLKREVFGQQEVAEGLLGHLQDYLSTYVHNKPLVLSFHGPTGVGKSHVGRLLAQHFRSVVGEELVMQYFVLHHCPTDDDIPVCTKSLESHISEMVSQGEEEEKIPVFIFDEVEHMPRQLMDTLRELIQPQNSNKYLNAIYILISNLGHEDITKFVLHNSSIAISGRLSLTQELTPWLRNYLQEHHGLFLDAEYLPFMLLEKSHVMDCFIDEMSREGFYPDRSHVERLAEELSYYIVGEREFSHTGCRQVVAKVNLL | soluble |
| MAFKFKTFAAVGALIGSLALAGCGQDEKDPNHIKVGVIVGAEQQVAEVAQKVAKEKYGLDVELVTFNDYVLPNEALSKGDIDANAFQHKPYLDQQIKDRGYKLVSVGKTFVYPIAGYSKKIKSLDELKDGSQVAVPNDPTNLGRSLLLLQKVGLIKLKDGVGLLPTSLDIVENPKNLKIVELEAPQLPRSLDDAQIALAVINTTYASQIGLTPAKDGIFVEDKDSPYVNLIVTREDNKDAENVKKFVQAYQSDEVYEAANKVFNGGAVKGWLEHHHHHH | soluble |
| RKIFTNKCERAGCRQREMMKLTCERCSRNFCIKHRHPLDHDCSGEGHPTS | soluble |
| MGSDKIHHHHHHMFDKQEFVSKLVTEEKAKIVLLVMDGLGDIPVNGKTPLQAANTPNLDNLAKESDLGQTIPVLPGITPGSGPGHLSLFGYDPIKYQIGRGILEALGIGVEVGEKDVVARANFATWDGKVVLDRRAGRPATEESAKVVQLLSEKIKKIEDVEITFYPGKEHRFVVKFTGEGLGDKVTDADPQKEGHPMVWAEGLDEPSKKTARIVNELIKKIAEVLKDNPKINFALIRGFSKYPDLPKFPQVYKMKAGAIATYPMYRGLAKLVGMEIIETGQTVADEIKTLKEKWNDYDFFYVHVKKTDSYGEDGKFEEKVKVIEEVDAIIPEIVSLNPDVLVITGDHSTPVPLKAHSWHPVPLLIWSKYTRRGLSQAFNEFECARGTLGTIHASDVMTLALAYAGKLEKFGA | not soluble |
| MGSDKIHHHHHHMSQAKATFSTEHDLNTSEQQAFWQSVVQDTLITADGITLAYMMVKHPQAHTAIVLSSGRVESYLKYQELVFDLYQQGYSVYAIDHRGQGLSDRMTINPHMGHVRRFNDYIDDFALFMQKKVLPQNDKQLMLLGHSMGGAIGTLYLKQHPDIFTAAAFSAPMYGIKLPMPKAFVRWLASKLDTTLNGGEPNYVLGGQNYKPVPFKGNELTHCQSRYQAYRDLYDAAPKLQLGSPTNRWLTESLDAADTCVLATAQIRTPILILQASEDKIVDNAAQNLAVSTHCQLKVIAGAAHEIFMEKDAYRNQALNYALDFFKRFAIKDEDKQAG | not soluble |
| MGSDKIHHHHHHESDLEQVTYSSENAIPSTLSSLNDNYILESKNASQEAFTLTWSHPDLGYQASVINSLEMDVKDKNFANKVILASSKTDVSHTITVSDLNSKIMALLKVYEMETAPIGIEFRISSSISAAADTLYSNIVSTTITPYEGEPEYPAITLRGSYNGWDFTKSQKVYSVNSDNIYAAMVYFDGKAADGWKFCGTEDWSTDNWGAPESMTPEQSPVTLVSGNGGDIKAYSKNSYYLEFNNTTGELKVSKPHNSWGIVGDHNSWGSGDTMMTLETETDENNKFQYYLKATLDMSAGNKWKIRPEEKWEDDIAPGAVEGEFEDAGDGNFKVSEAGNYTIKWYFNKVTPKIIVVKNK | not soluble |
| NPVSKRSRGKGMLGGAKRAARTHRASGTAVEELVFPYEHPVPQVGTLTSVELTIPLMRDGVVVEGLPTLEESRAYLAQQLVTIPWEGLALSRDEPVLATRHVGFDQ | not soluble |
| SNAVRGFLIVGNKAFTQPFSLNDLPGAGRMDVLCRCTSQALFISHGIRRDVEVYLLLLGPPSPPKSILIKGDEVRRMSPDERNVAGHIKKALAVECGKSWKKVHSGVYVSRKGLEELIEELSEKYSIIYLKEDGVDISNAQLPPNPLFVIGDHEGLTEEQEKVVERYAALKLSLSPLSLLAEQCVVIAHHHLDRLQF | soluble |
| KNNPDPTIYPVLDWNDIKFQDVIGEGNFGQVLKARIKKDGLRMDAAIKRMKEYASKDDHRDFAGELEVLCKLGHHPNIINLLGACEHRGYLYLAIEYAPHGNLLDFLRKSRVLETDPAFAIANSTASTLSSQQLLHFAADVARGMDYLSQKQFIHRDLAARNILVGENYVAKIADFGLSRGQEVYVKKTMGRLPVRWMAIESLNYSVYTTNSDVWSYGVLLWEIVSLGGTPYCGMTCAELYEKLPQGYRLEKPLNCDDEVYDLMRQCWREKPYERPSFAQILVSLNRMLEERKTYVNTTLYEKFTYAGIDCSAEEAA | soluble |
